Source: the NTF2 design screens of Basanta et al. (2020)

Test: protease stability score; higher = more stable; yeast display proteolysis, trypsin and chymotrypsin;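 further: relative to predicted unfolded state with 0 unfolded-like and 1 meaning tenfold more protease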
For “SEEEELIHILERLIIEFRRTGNEEAWMNLMDPHAKVEIGDFDLIGRDEVSRWLHHLRIDDIHITLRRFRDIDGRVISYGEENIRVDFNGQHVEFRRRSILILFKVDGQWYIESIHVH”, the protease stability score was 0.959.
For “SEEDEMSKRFLDDLLHNLRTGDFDRLKNELDPHAKLVVDGQELHGMELASKRDLEMRVNHLEIRHVEIQGEWIHLKGEMDGEVNGKRNIHEVHVLLFKINGRWYVREVWIR”, the protease stability score was 1.41.
“DEMEEKIRTHMSLLVEYLDTGDEEITKSMLDPNTMAFYGDKLHIGREEAEEILREIRVHHLDIKRIDHQGDKIRVDGEMDGIVNGKRYRTRVEIFSTKINGRWIIEQRVIR” gave a protease stability score of 1.04.
“DHQRDLLKEARERLLHSIETGDEELWRRLFDPETLLIAENHSSHGREARHDWKKRFDVIDHLEIRTRDVDMIGDKIYVEGKLDYITKYDGVTRNYTNTVHFIATKINGRWVIESVRFE” gave a protease stability score of 1.09.
With “SERSEFITRLTREMIHAFETGDWKWLSELLDPNTRYHFRQGDKEFDMHGREEMVKMLEKILRHFGIDHFHIEDVKLYGDKVIVHHRSLVNGKEVHVRIEWDIVDGRIKSFNLDYHEN” the protease stability score was 1.26.
Sequence “HEEEKHAHEVLQLFIESVETGDWRMWEHLADPHVRLEVNGQEVIGREDALRWLEELLKKLGVDHFKLELEDHHIQGEKVRSITRSHIRVNGVRIDRTTHVIIVVINGRLKHIEVRER” has a protease stability score of 0.204.
“SEEEELARHAFELWTRSMLTGDEHTMEKLFDPNTRLDINGRDHVGRELFLEFIHRLLREWRFRDVKLEDVKSVNGVLFLKVRLDVEFDGRRYSLTVELIVTKINGKWHMTEIKMH” gave a protease stability score of 0.353.
“SDEEREIEHLARLFLEWWYTGDEDTIMKNADPHVRHDFNGVENIGRERVAEVVVHLIRELRIKSMHLHDIDIQGNKVDMNIELDGTYNGKRRKREMEIELVFINGRIKSSHVTIK” gave a protease stability score of 1.17.
“DEEEELMRSFLRLWFEAMITGDEHTLKELIDPDVRIEQGDKTHHGWEEFLRKFHKIKNMTIRHVELNHEHVQGDKIDLIITLHGHINGRHEELEVRLHARKVDGRWKMTRIHYQ” showed a protease stability score of 2.66.
Sequence “HEEEEHIWRMFKLFIHYLLTGDPDMLARYADPNVRLDINGQEWHGREEMFEMLKIFFDELRIKHFHLRRWRVVDGVAHVDVETHGNYNGREETRKVHIHVVIFNGRMKELVIKIS” has a protease stability score of 2.66.
For “SERHKDMKRLIDEWRKSYETGDEDQLRRLLDPTTRVDFNGVEYHGRHEAVEIMSQIRVEHIDIRELHVQGNKAEVRVRMHGHFDGQEEEVEFIIYMKKVNGRWVVHQEEHR”, the protease stability score was 1.16.
With “NEEEDINHHIVELFFHLLHTGDWEELEKLADPHARLEINGRRFHGRENVVTQLWELLHRIDHVEIRDLRVQGDKVHVDTRLRIGDKEKKTEWDIVVVNGKIKRSRVRVH” the protease stability score was 2.02.
Sequence “SEEDHLVDLMLKFLIESLKTGDEKTLRKLVDPNDKVVFNGRELHGRRALEYWLERFDHAHRFHIEDFTVQGDYMIVRVKLDGHVDGVRMETTIHLILVKYDGRWFVKMTIFN” has a protease stability score of 1.26.
Sequence “DEDKDLMHEVTRLLHRNLNTGDEHSLERLFDPHYRYHQGEFHSVGREEWYEWLRRYGVDHVHVNLTESISVGDKMKLEGKLELRYDGRRFEHDLHLIALKIDGRWIFTSSHVR” has a protease stability score of 0.221.
With “SDEERLLKEIYRIWIRLFETGDWKEFEQMFDPNVRLIIGDKDLHGMELYSKFMRHFVEHIRFEDHQEHEIRVIGDKIHVHGREVGNVNGKRHRREIEIRLVVVNGVFKSEELRVH” the protease stability score was 1.18.
Sequence “EESEKSAKLLLDWLFRHLITGNEETFQHFADPNARVDQGEKDSHGMEWVRLVLEEIRIDNMHVRDFRIFEGRLIIDTEIRIKYNGVEMTIKVTVVSEKVNGKWRMKSMHVN” has a protease stability score of 1.04.
“SEDEERSKLIIDLWEHTQSTGDESLIERLLDPDARSHWDGVHVHGRKATKIMIERIDYVERVDFKEIRTYDGRVEIHGTIDGNFNGRRREMEVIIFVVKVDGKWRIRSIRFT” gave a protease stability score of 1.3.
Sequence “SEEERATEYVLSMLLHLLRTGDEDALFEMADPRYRFIYGEKEKVGRHVIHEFITHLRIDDFRLRRLEIQGDKIITDGEMYGTINGQHETRRVILIMRKINGRWFLESIEIR” has a protease stability score of 1.7.
Sequence “SEIKEEMDEVSELWQRALETGDEHEVLKLMDPHARIDFDGVDHVGWREVTKSLKHMRIDHIKIRHITVIGNKIDIDGEVNMTVNGQERQETVHIELIVVNGRIRHIRIHLV” has a protease stability score of 0.396.
“DEDEKEQKEIADLWKKYVDTGDEKLLMELMDPTARLNIGDKRFHGRETFEHVMREIKKRYDHFELHIHHIDIQGEKIRMEGREINKFDGKTVDIRTRIRIIVVNGRITFLHHQLD” showed a protease stability score of 0.622.
With “TEDWELMKKAMEDLSRDLSTGDFERINRMLDPHTKLVVGDKEHHGMHAWEIFVKRIDHERSVEVRHFRIIGDKIDIDGTLHAEYGEKRITLKVHIIDSKVNGKWVIEVLSFK” the protease stability score was 1.4.
“DEDERDTREAIELFRESIRTGDERILEEMVDPNVRLEFNGKHHHGMEHLVKWFSFLAKHWRVDIDLHHLEVQGDKVHSDERIDLVQGDKIVHTEVKIIFRKINGRWLMHKIRIN” showed a protease stability score of 1.4.
For “DESHELWRRNLELILQSRHTGDEFLTKELFDPRMRSNVNGVELHGMEEMLKFVSEIRIHVEHFRLHRIETQGDKIHIRAHEVINIEIGDYHVRLDTWVEMHDVKYNGRWFNTEVHIR”, the protease stability score was 0.979.
“NEINRHLHEAFKKLINVMMTGDEEESTELLDPNARINFNGKDFWGWNELRKSMHEARIHHIQITSVRYIGDKIIIHGTVDGEFDGQRKEVEMEIFSRKFNGQWFFESIIIR” showed a protease stability score of 1.28.
“DELEKAIHHILKELLEARLTGDWQMVIDRFDPHVLLRVGDKEFHGREIIRHLHEQFDHVEHVDLRLENHRYQGNKIHLDIKTTMDVRVGEKRVELRTESRIILLKVNGRWIIESVEIN” gave a protease stability score of 2.02.
For “DEDDDLALHMFELLLHVWTTGDERIMHELLDPHARLDFNGRTFHGREAFIHYMHEIFRHIRINDSTVRHIRVIDGRLDIESHVDIRVGDKRFEMETHLIVLKVDGKWQVTLYKLS”, the protease stability score was 1.4.
With “DEDQKFAMEVLELLVRAKVTGNEELLEKLLDPHTRVDINGREIHGWEEMLRILHEWRIRDLEFRVRDIHIIDGRLKIDGEERVEGEIDGRNMEIKYRTEVYYEKINGRWIVREMSVR” the protease stability score was 1.75.
“SEDDNLNEWMMRVWLTTLRTGDEKNTERLLDPNARLHVGDKDFHGRELLTKHFYDEVETLGFKHSELKRLLYQGEKMIIHVEVNINGVDIHIDVHIRKIDGRWYIHQVHVR” gave a protease stability score of 2.14.
For “DHVEEEAEEFVRNFIHNMRTGNWKYMEELLDPNVRLRYGDKDHHGREEMVKWIEEAFKKFKNLTIEIKHINIIGDKLIFDLHVEFNGKHHQLHLIVTKIDGKWISKSIHVD”, the protease stability score was 1.47.
With “SEEHKELRELIRITFEDLFTGDEDAFMRLFDPHTILHIGEKRYIGREIIIHALRWLGVDHMEIKHIDIQGEKVDMHMHLKVGDKSWTMHLHIEKFNGQWHSKHIEIR” the protease stability score was 1.95.
Work on “DEDERAYEESVRTFLENNLTGNEEILHRLMDPHVKTDYGDKRYHGMEEATEMIRRLGVNHFHLNSVHHQGDKVHLHGRVIVNGREFQVHIESKKINGRWVIRKVVID” yielded a protease stability score of 1.27.
For “DDMHRELRKLAEEIEKLIETGDEDRLRTLLDPHTRVEIGDWSDMGWDAIHKMIRHIRIDSVTIRREHFFNGRVHTDIEVDGTIGDKKDIRHVELEIVIVDGRVKEIKMIYV”, the protease stability score was 2.13.
In the case of “SEEEEEIRRTIEMLLKAWQTGDEEFWMRLFDPHYRFEINGKVYHGREVMRLERRRIDYIHRVEYRIDHIDTQGDKVIIRFTLHLDVEFDGVRTELHEHRVIIIEKVNGQWRLKSVEIE”, the protease stability score is reported as 1.46.
Sequence “TEEHREIKESVEQWHKDLHTGNEEMLVRLMDPRMRLQIGDKTLHGREEATRWAREFHKRYDHIHDFKIKDYDHYGNYIIIIGTLDGIVDGQRVRTDVRLIFVKVNGRWTIESEEHE” has a protease stability score of 0.346.
Work on “SEEKEMLETWFLLLVESFETGDEELFEELADPRTRLVINGRHQHGREDINEWLHRVWHKLGAKHVSLDLHDMRVINGRIHSHFTLLIRIGDYTERRQVDLHMIIINGKVKHVEIRFR” yielded a protease stability score of 1.06.
“SELKEEVDRWAKRFIHAVETGDEDTILKFMDPHVKSSVGEKVHHGREFLIIIWRELRIRHFTVHHIRVDEDHLIIHMEWQGHVNGKEIRLEVDLFIRKVDGVWIMKHIEIR” showed a protease stability score of 2.03.
